Data: patent publication US20230140293A1
pKd: −log10 of the molar value. Where two headings read alike, the source gives them in different places.

Columns and labels:
[1] = molecular target: HIV-1 426c.DM (N460D/N463D) Env on Env-pseudotyped virus produced in 293T cells (HIV-1); experiment: cell-based or functional assay
[2] = molecular target: HIV-1 CH0505TF (CH505 transmitted/founder) Env on Env-pseudotyped virus produced in 293T cells (HIV-1); experiment: cell-based or functional assay
[3] = molecular target: CH0505TF.gly3.197 Env, Env-pseudotyped virus produced in 293T cells (HIV-1); experiment: cell-based or functional assay
[4] = molecular target: CH0505TF.gly3.276 Env, Env-pseudotyped virus produced in 293T cells (HIV-1); experiment: cell-based or functional assay
[5] = molecular target: HIV-1 Env 426c.TM (N276D.N460D.N463D), Env-pseudotyped virus produced in 293S GnTI- cells (Man5-enriched) (HIV-1 clade C strain 426c); experiment: cell-based or functional assay
[6] = molecular target: CH0505TF.gly3.461 Env, Env-pseudotyped virus produced in 293T cells (HIV-1); experiment: cell-based or functional assay
[7] = molecular target: CH0505TF.gly3.197 Env, pseudotyped virus produced in 293S GnTI- cells (HIV-1); experiment: cell-based or functional assay
[8] = molecular target: HIV-1 CH0505TF.gly4 Env on Env-pseudotyped virus produced in 293S/GnTI-/- cells (Man5-enrichment) (HIV-1); experiment: cell-based or functional assay
[9] = molecular target: CH0505TF.G458Y Env, Env-pseudotyped virus produced in 293T cells (HIV-1); experiment: cell-based or functional assay
[10] = molecular target: CH0505TF.gly4 Env, Env-pseudotyped virus produced in 293T cells (HIV-1); experiment: cell-based or functional assay
[11] = molecular target: HIV-1 426c.SM (N276D) Env on Env-pseudotyped virus produced in 293s/GnTI-/- cells (Man5-enrichment) (HIV-1); experiment: cell-based or functional assay
[12] = molecular target: CH0505.w4.3 Env, pseudotyped virus produced in 293S GnTI- cells (HIV-1); experiment: cell-based or functional assay
[13] = molecular target: HIV-1 Env 426c.TM4 (S278R.G471S.N460D.N463D), Env-pseudotyped virus produced in 293T cells (HIV-1 clade C strain 426c); experiment: cell-based or functional assay
[14] = molecular target: HIV-1 clade C strain 426c Env on Env-pseudotyped virus produced in 293T cells (HIV-1); experiment: cell-based or functional assay
[15] = molecular target: HIV-1 CH0505TF.G458Y Env on Env-pseudotyped virus produced in 293S GnTI-/- cells (Man5-enrichment) (HIV-1); experiment: cell-based or functional assay
[16] = molecular target: CH505 w053.16 gp120 (HIV-1); experiment: ELISA, gp120 on plate
[17] = molecular target: CH505 transmitted/founder (TF) gp120 (HIV-1); experiment: ELISA, gp120 on plate
[18] = molecular target: CH505 w078.15 gp120 (HIV-1); experiment: ELISA, gp120 on plate
[19] = molecular target: CH505 w030.21 gp120 (HIV-1); experiment: ELISA, gp120 on plate
[20] = molecular target: CH505 w078.33 gp120 (HIV-1); experiment: ELISA, gp120 on plate
[21] = molecular target: CH505 w100.B6 gp120 (HIV-1); experiment: ELISA, gp120 on plate
[22] = molecular target: CH0505TF G458Y.N280D Env, pseudotyped virus produced in 293S GnTI- cells (HIV-1); experiment: cell-based or functional assay
[23] = molecular target: CH0505TF G458C Env, pseudotyped virus produced in 293S GnTI- cells (HIV-1); experiment: cell-based or functional assay
[24] = molecular target: HIV-1 CH0505TF.G458Y Env on Env-pseudotyped virus produced in 293T cells (HIV-1); experiment: cell-based or functional assay
[25] = molecular target: CH0505TF G458F Env, pseudotyped virus produced in 293S GnTI- cells (HIV-1); experiment: cell-based or functional assay
[26] = molecular target: CH0505TF G458E Env, pseudotyped virus produced in 293S GnTI- cells (HIV-1); experiment: cell-based or functional assay
[27] = molecular target: CH0505TF.gly4.G458Y Env, pseudotyped virus produced in 293S GnTI- cells (HIV-1); experiment: cell-based or functional assay
[28] = molecular target: CH0505TF G458S Env, pseudotyped virus produced in 293S GnTI- cells (HIV-1); experiment: cell-based or functional assay
[29] = molecular target: CH0505TF.gly4.G458Y Env, pseudotyped virus produced in 293T cells (HIV-1); experiment: cell-based or functional assay
[30] = molecular target: CH0505TF G458W Env, pseudotyped virus produced in 293S GnTI- cells (HIV-1); experiment: cell-based or functional assay
[31] = molecular target: HIV-1 CH0505TF.G458Y Env on Env-pseudotyped virus produced in 293S GnTI-/- cells (Man5-enrichment) (HIV-1); experiment: cell-based or functional assay; remark: listed apart in the source
[32] = molecular target: CH0505TF G458D Env, pseudotyped virus produced in 293S GnTI- cells (HIV-1); experiment: cell-based or functional assay
[33] = molecular target: CH0505TF G458L Env, pseudotyped virus produced in 293S GnTI- cells (HIV-1); experiment: cell-based or functional assay
[34] = molecular target: CH0505TF G458K Env, pseudotyped virus produced in 293S GnTI- cells (HIV-1); experiment: cell-based or functional assay
[35] = molecular target: CH0505TF G458R Env, pseudotyped virus produced in 293S GnTI- cells (HIV-1); experiment: cell-based or functional assay
CH505 M5 gp120 (HIV-1) = experiment: method not named in the legend (FIG. 59F); GMP M5 gp120

Substance | ID50/IC50 in TZM-bl [1] | IC50 (ug/ml) in TZM-bl cells [2] | IC50 (µg/ml) in TZM-bl [3] | IC50 (µg/ml) in TZM-bl [4] | IC50 (µg/ml) in TZM-bl [5] | IC50 (µg/ml) in TZM-bl [6] | IC50 (µg/ml) in TZM-bl [7] | IC50 (ug/ml) in TZM-bl cells [8] | IC50 (µg/ml) in TZM-bl [9] | IC50 (µg/ml) in TZM-bl [10] | ID50/IC50 in TZM-bl [11] | IC50 (µg/ml) in TZM-bl [12] | IC50 (µg/ml) in TZM-bl [13] | ID50/IC50 in TZM-bl [14] | also measured
CH103 (antibody) | 6.1 µg/mL | 2.6 µg/mL | 1.6 µg/mL | 0.014 µg/mL | 0.09 µg/mL | 0.014 µg/mL | 0.19 µg/mL | 0.005 µg/mL | 6.4 µg/mL | 0.002 µg/mL | 2.2 µg/mL | 0.18 µg/mL | 3.7 µg/mL | > 40 µg/mL | IC50 (µg/ml) in TZM-bl [15]: 0.44 µg/mL; log AUC [16]: 11.6 log AUC; log AUC [17]: 12.6 log AUC; log AUC [18]: 10.7 log AUC; log AUC [19]: 12.2 log AUC; log AUC [20]: 11.1 log AUC; log AUC [21]: 7.1 log AUC
CH235 (antibody) | > 50 µg/mL | 0.35 µg/mL | 0.16 µg/mL | 0.034 µg/mL | > 25 µg/mL | 0.086 µg/mL | 0.006 µg/mL | 0.004 µg/mL | 0.1 µg/mL | 0.022 µg/mL | > 25 µg/mL | 0.03 µg/mL | > 25 µg/mL | > 50 µg/mL | IC50 (µg/ml) in TZM-bl cells [22]: 2.69 µg/mL; IC50 (µg/ml) in TZM-bl cells [23]: 0.009 µg/mL; IC50 (µg/ml) in TZM-bl [2]: 0.35 µg/mL; IC50 (µg/ml) in TZM-bl [24]: 0.2 µg/mL; IC50 (µg/ml) in TZM-bl cells [25]: < 0.005 µg/mL; IC50 (µg/ml) in TZM-bl cells [26]: 0.012 µg/mL; IC50 (µg/ml) in TZM-bl cells [27]: < 0.005 µg/mL; IC50 (µg/ml) in TZM-bl cells [28]: 0.005 µg/mL; IC50 (µg/ml) in TZM-bl cells [29]: 0.064 µg/mL; IC50 (µg/ml) in TZM-bl cells [30]: < 0.005 µg/mL; IC50 (µg/ml) in TZM-bl [31]: < 0.02 µg/mL; IC50 (µg/ml) in TZM-bl cells [32]: 0.011 µg/mL; IC50 (µg/ml) in TZM-bl cells [33]: 0.015 µg/mL; IC50 (µg/ml) in TZM-bl cells [34]: 0.022 µg/mL; IC50 (µg/ml) in TZM-bl cells [35]: < 0.005 µg/mL; pKd (CH505 M5 gp120 (HIV-1)): 8.10
